Test results reported in paper PMC11288887 (2024).
No end group written: not given here.

Assays:
Assay in all cases: FP
(DLP)6 binder = molecular target: (DLP)6 binder
(DLS)6 binder = molecular target: (DLS)6 binder
(KLP)6 binder = molecular target: (KLP)6 binder

Binder | Kd ((DLP)6 binder) | Kd ((DLS)6 binder) | Kd ((KLP)6 binder)
tetramethylrhodamine-KLPKLPKLPKLPKLPKLP [(KLP)6] | ~1000 nM | ~1800 nM | 
tetramethylrhodamine-DLPDLPDLPDLPDLPDLP [(DLP)6] |  | 0.7 nM | 4.6 nM
